{"source": "patent US20120060230", "test_in_all_cases": "cell_activity", "key": {"ZFN 28385 (synthetic)": {"test_system": "ZFN 28385 (synthetic)", "conditions": "pair with 28386, HEK293"}, "ZFN 28386 (synthetic)": {"test_system": "ZFN 28386 (synthetic)", "conditions": "pair with 28385, HEK293"}, "ZFN 28406 (synthetic)": {"test_system": "ZFN 28406 (synthetic)", "conditions": "pair with 28405, HEK293"}, "ZFN 28405 (synthetic)": {"test_system": "ZFN 28405 (synthetic)", "conditions": "pair with 28406, HEK293"}, "ZFN 15487 (synthetic)": {"test_system": "ZFN 15487 (synthetic)", "conditions": "pair with 15486, K562; approx 1% in RAJI"}, "ZFN 25540 (synthetic)": {"test_system": "ZFN 25540 (synthetic)", "conditions": "pair with 25539, 10 ug mRNA, primary T cells; background 2.4%"}, "ZFN 28404 (synthetic)": {"test_system": "ZFN 28404 (synthetic)", "conditions": "pair with 28403, HEK293"}, "ZFN 15872 (synthetic)": {"test_system": "ZFN 15872 (synthetic)", "conditions": "pair with 15873, wt FokI, K562; approx 28% with EL/KK"}, "ZFN 15873 (synthetic)": {"test_system": "ZFN 15873 (synthetic)", "conditions": "pair with 15872, wt FokI, K562; approx 28% with EL/KK"}, "ZFN 28403 (synthetic)": {"test_system": "ZFN 28403 (synthetic)", "conditions": "pair with 28404, HEK293"}, "ZFN 15910 (synthetic)": {"test_system": "ZFN 15910 (synthetic)", "conditions": "pair with 15909, EL/KK FokI, K562; 6 and 11% with wt FokI"}, "ZFN 15507 (synthetic)": {"test_system": "ZFN 15507 (synthetic)", "conditions": "pair with 15506, K562"}, "ZFN 18889 (synthetic)": {"test_system": "ZFN 18889 (synthetic)", "conditions": "pair with 24859, HLA A2, HEK293; with 18881 approx 3%; A3 allele 10% and 9%"}, "ZFN 24859 (synthetic)": {"test_system": "ZFN 24859 (synthetic)", "conditions": "pair with 18889, HLA A2, HEK293; A3 allele 10%"}, "ZFN 15909 (synthetic)": {"test_system": "ZFN 15909 (synthetic)", "conditions": "pair with 15910, EL/KK FokI, K562; 6 and 11% with wt FokI"}, "ZFN 16787 (synthetic)": {"test_system": "ZFN 16787 (synthetic)", "conditions": "pair with 16783, 10 ug mRNA, primary T cells; background 2.4%"}, "ZFN 18881 (synthetic)": {"test_system": "ZFN 18881 (synthetic)", "conditions": "pair with 18889, HLA A2, HEK293; A3 allele 9%"}, "ZFN 15506 (synthetic)": {"test_system": "ZFN 15506 (synthetic)", "conditions": "pair with 15507, K562"}, "ZFN 28393 (synthetic)": {"test_system": "ZFN 28393 (synthetic)", "conditions": "pair with 28394, HEK293"}, "ZFN 28394 (synthetic)": {"test_system": "ZFN 28394 (synthetic)", "conditions": "pair with 28393, HEK293"}, "ZFN 25539 (synthetic)": {"test_system": "ZFN 25539 (synthetic)", "conditions": "pair with 25540, 10 ug mRNA, primary T cells; background 2.4%"}}, "data": [{"sequence": "ACTCTGGGGTAGATGGAGAGCAGTACCT (double strand) [28385 site]", "values": [{"measurement": "activity (% gene modification)", "setting": "ZFN 28385 (synthetic)", "result": 39}]}, {"sequence": "AGAAGGCTGTGGGCTCCTCAGAGAAAAT (double strand) [28386 site]", "values": [{"measurement": "activity (% gene modification)", "setting": "ZFN 28386 (synthetic)", "result": 39}]}, {"sequence": "CCACAGCCAGAGCCTCAGCAGGAGCCTG (double strand) [28406 site]", "values": [{"measurement": "activity (% gene modification)", "setting": "ZFN 28406 (synthetic)", "result": 34}]}, {"sequence": "CGCAAGAGGCTGGAGAGGCTGAGGACTG (double strand) [28405 site]", "values": [{"measurement": "activity (% gene modification)", "setting": "ZFN 28405 (synthetic)", "result": 34}]}, {"sequence": "CTACTCGGGCCATCGGCGGCTGCCTCGG (double strand) [15487 site]", "values": [{"measurement": "activity (% gene modification)", "setting": "ZFN 15487 (synthetic)", "result": 15}]}, {"sequence": "CTGACTTTGCATGTGCAAACGCCTTCAA (double strand) [25540 site]", "values": [{"measurement": "activity (% CD3-negative cells)", "setting": "ZFN 25540 (synthetic)", "result": 28.1}]}, {"sequence": "CTGGATGGGGCTTGGCTGATGGTCAGCA (double strand) [28404 site]", "values": [{"measurement": "activity (% gene modification)", "setting": "ZFN 28404 (synthetic)", "result": 64}]}, {"sequence": "GAAATAAGGCATACTGGTATTACTAATG (double strand) [15872 site]", "values": [{"measurement": "activity", "setting": "ZFN 15872 (synthetic)", "result": 13, "unit": "% NHEJ"}]}, {"sequence": "GAGGAGAGCAGGCCGATTACCTGACCCA (double strand) [15873 site]", "values": [{"measurement": "activity", "setting": "ZFN 15873 (synthetic)", "result": 13, "unit": "% NHEJ"}]}, {"sequence": "GCCCGCGGGCAGTTCTGCGCGGGGGTCA (double strand) [28403 site]", "values": [{"measurement": "activity (% gene modification)", "setting": "ZFN 28403 (synthetic)", "result": 64}]}, {"sequence": "GCGGGGGAAAGAGAGGAGGAGAGAAGGA (double strand) [15910 site]", "values": [{"measurement": "activity", "setting": "ZFN 15910 (synthetic)", "result": 14, "unit": "% NHEJ"}]}, {"sequence": "GCTCGAAGGCTTGGTGGCCGGGGCCAGT (double strand) [15507 site]", "values": [{"measurement": "activity (% gene modification)", "setting": "ZFN 15507 (synthetic)", "result": 2}]}, {"sequence": "GTATGGCTGCGACGTGGGGTCGGACGGG (double strand) [18889 site]", "values": [{"measurement": "activity", "setting": "ZFN 18889 (synthetic)", "result": 6, "unit": "% NHEJ"}]}, {"sequence": "TCCTCTGGACGGTGTGAGAACCTGGCCC (double strand) [24859 site]", "values": [{"measurement": "activity", "setting": "ZFN 24859 (synthetic)", "result": 6, "unit": "% NHEJ"}]}, {"sequence": "TCTCCCAGGGTGGTTCAGTGGCAGAATT (double strand) [15909 site]", "values": [{"measurement": "activity", "setting": "ZFN 15909 (synthetic)", "result": 14, "unit": "% NHEJ"}]}, {"sequence": "TCTCGGAGAATGACGAGTGGACCCAGGA (double strand) [16787 site]", "values": [{"measurement": "activity (% CD3-negative cells)", "setting": "ZFN 16787 (synthetic)", "result": 9.4}]}, {"sequence": "TTATCTGGATGGTGTGAGAACCTGGCCC (double strand) [18881 site]", "values": [{"measurement": "activity", "setting": "ZFN 18881 (synthetic)", "result": 3, "unit": "% NHEJ"}]}, {"sequence": "TTGATGTCAGGGAAGATCTCTCTGATGA (double strand) [15506 site]", "values": [{"measurement": "activity (% gene modification)", "setting": "ZFN 15506 (synthetic)", "result": 2}]}, {"sequence": "TTGATTCGAGACATGGTGTAGGTGAAGC (double strand) [28393 site]", "values": [{"measurement": "activity (% gene modification)", "setting": "ZFN 28393 (synthetic)", "result": 49}]}, {"sequence": "TTGCGGATCCGGGAGCAGCTTTTCTCCT (double strand) [28394 site]", "values": [{"measurement": "activity (% gene modification)", "setting": "ZFN 28394 (synthetic)", "result": 49}]}, {"sequence": "TTGTTGCTCCAGGCCACAGCACTGTTGC (double strand) [25539 site]", "values": [{"measurement": "activity (% CD3-negative cells)", "setting": "ZFN 25539 (synthetic)", "result": 28.1}]}]}
